How the values were obtained:
[1] = target: T1, CD99 peptide containing the 10A1 epitope, Ac-GENDDPRPPNPPKPM-amide (human); test: crystal structure
T1 chain: Ac-GENDDPRPPNPPKPM-NH2

[2] = target: T2, CD99, endogenously expressed on T-ALL cells (Jurkat, KOPT-K1) (human (endogenous in Jurkat and KOPT-K1)) (UniProt P14209)
T2 sequence (chain, O-linked glycosylation): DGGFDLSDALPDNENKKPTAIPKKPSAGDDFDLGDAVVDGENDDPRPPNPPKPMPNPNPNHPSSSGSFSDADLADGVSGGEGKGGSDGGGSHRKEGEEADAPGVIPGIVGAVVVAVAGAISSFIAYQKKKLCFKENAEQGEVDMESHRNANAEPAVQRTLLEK

binding result [1]: binds
B1: 10A1 Fab (Fab, V domains shown)
VH: QVQLQQSGPVLVKPSQTLSLTCAISGDSISSDTTAWSWIRRSPSRGLEWLGWTYYRSKWFNYYAVSVKGRVTINPDTSKNQFSLQLSSVTPEDTAVYYCARGNGNGGMDVWGQGTTVTVSS
VL: SYVLTQPASASVSPGQTARITCSGDALPKQYAYWYQQKPGQAPVLVIFKDSERPSGVPERFSGSSSGTTVTLTISGAQAEDEADYYCQSVDNSGFYQVFGGGTQLTVL
IC50 (nM Fv) of cytotoxicity, Annexin V staining of KOPT-K1 cells after 18 h [2]: > 2000 nM Fv
